Where two headings read alike, the source gives them in different places.
Columns and labels:
Assay in all cases: SPR
Lymphotoxin-α [1] = target: T1, Lymphotoxin-α (UniProt P01374 35-205)
T1 sequence (looked up): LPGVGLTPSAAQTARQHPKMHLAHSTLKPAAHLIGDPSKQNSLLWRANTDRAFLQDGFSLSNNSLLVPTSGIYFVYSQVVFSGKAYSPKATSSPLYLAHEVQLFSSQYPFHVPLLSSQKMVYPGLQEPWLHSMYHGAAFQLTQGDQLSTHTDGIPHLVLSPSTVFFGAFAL

Lymphotoxin-α [2] = target: T1, Lymphotoxin-α; remark: listed apart in the source
Lymphotoxin-α [3] = target: T1, Lymphotoxin-α; remark: listed apart in the source

B1: Soluble TNFR1 extracellular domain, residues 40-201 (receptor, human, UniProt P19438 40-201, looked up)
chain: RDSVCPQGKYIHPQNNSICCTKCHKGTYLYNDCPGPGQDTDCRECESGSFTASENHLRHCLSCSKCRKEMGQVEISSCTVDRDTVCGCRKNQYRHYWSENLFQCFNCSLCLNGTVHLSCQEKQNTVCTCHAGFFLRENECVSCSNCKKSLECTKLCLPQIEN
Lymphotoxin-α [1]
  Kd: 57 nM
Lymphotoxin-α [2]
  Kd: 50 ± 10 nM
Lymphotoxin-α [3]
  Kd: 46 nM
  koff: 0.0092 s⁻¹
  kon: 170000 M⁻¹ s⁻¹
